Laboratory results from patent publication US7749694.

How the values were obtained:
[1] = molecular target: pertactin ectodomain (Prn-E) (Bordetella (species not stated)); assay: static light scattering
[2] = molecular target: pertactin ectodomain (Prn-E) (Bordetella (species not stated)); assay: isothermal titration calorimetry (ITC)

“Mtd-P1 (major tropism determinant variant of Bordetella bacteriophage BPP-1) (from UniProt Q775D6 1-381)” showed a stoichiometry of association between Mtd and Prn-E (Mtd monomers per Prn-E (ratio 3:1)) [1] of 3 and a Kd [2] of 3000 nM.
